Assay results as given in the supplement of paper PMC11316812.
± gives the standard deviation of the averaged measurements.

Key:
MCF7 = assay: percentage of EdU-negative (G0-arrested) nuclei per well, 72 h; higher = more G0 arrest; conditions: reference: sequence is the full UniProt precursor, the tested protein was the secreted form or ectodomain
hTERT-HMEC = assay: as above; conditions: reference: sequence is the full UniProt precursor, the tested protein was the secreted form or ectodomain
[1] = protein concentration 0.015525 µM
[2] = protein concentration 0.15525 µM
[3] = protein concentration 0.0225 µM
[4] = protein concentration 0.0191429 µM
[5] = protein concentration 0.191429 µM
[6] = protein concentration 0.03125 µM
[7] = protein concentration 0.3125 µM
[8] = protein concentration 0.01925 µM
[9] = protein concentration 0.1925 µM
[10] = protein concentration 0.0157525 µM
[11] = protein concentration 0.157525 µM
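Further: secreted proteins added to cultured cells, EdU pulse at the end, nuclei found by Hoechst imaging, EdU status from nuclear versus surrounding ring intensity ratio, PBS as neutral control.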

MRPQELPRLAFPLLLLLLLLLPPPPCPAHSATRFDPTWESLDARQLPAWFDQAKFGIFIHWGVFSVPSFGSEWFWWYWQKEKIPKYVEFMKDNYPPSFKYEDFGPLFTAKFFNANQWADIFQASGAKYIVLTSKHHEGFTLWGSEYSWNWNAIDEGPKRDIVKELEVAIRNRTDLRFGLYYSLFEWFHPLFLEDESSSFHKRQFPVSKTLPELYELVNNYQPEVLWSDGDGGAPDQYWNSTGFLAWLYNESPVRGTVVTNDRWGAGSICKHGGFYTCSDRYNPGHLLPHKWENCMTIDKLSWGYRREAGISDYLTIEELVKQLVETVSCGGNLLMNIGPTLDGTISVVFEERLRQMGSWLKVNGEAIYETHTWRSQNDTVTPDVWYTSKPKEKLVYAIFLKWPTSGQLFLGHPKAILGATEVKLLGHGQPLNWISLEQNGIMVELPQLTIHQMPCKWGWALALTNVI [Q9BTY2]
percentage of EdU-negative (MCF7; [1]): 22.7 ± 0.71% | percentage of EdU-negative (MCF7; [2]): 27.2 ± 2.1% | percentage of EdU-negative (hTERT-HMEC; [1]): 4.67 ± 0.2% | percentage of EdU-negative (hTERT-HMEC; [2]): 5.55 ± 0.98%

MRPQGPAASPQRLRGLLLLLLLQLPAPSSASEIPKGKQKAQLRQREVVDLYNGMCLQGPAGVPGRDGSPGANGIPGTPGIPGRDGFKGEKGECLRESFEESWTPNYKQCSWSSLNYGIDLGKIAECTFTKMRSNSALRVLFSGSLRLKCRNACCQRWYFTFNGAECSGPLPIEAIIYLDQGSPEMNSTINIHRTSSVEGLCEGIGAGLVDVAIWVGTCSDYPKGDASTGWNSVSRIIIEELPK [Q96CG8]
percentage of EdU-negative (MCF7; [3]): 25.9 ± 1.8% | percentage of EdU-negative (MCF7; protein concentration 0.225 µM): 22.2 ± 3.5% | percentage of EdU-negative (hTERT-HMEC; [3]): 5.305 ± 0.023% | percentage of EdU-negative (hTERT-HMEC; protein concentration 0.225 µM): 4.81 ± 1.6%

MRPRLWLLLAAQLTVLHGNSVLQQTPAYIKVQTNKMVMLSCEAKISLSNMRIYWLRQRQAPSSDSHHEFLALWDSAKGTIHGEEVEQEKIAVFRDASRFILNLTSVKPEDSGIYFCMIVGSPELTFGKGTQLSVVDFLPTTAQPTKKSTLKKRVCRLPRPETQKGPLCSPITLGLLVAGVLVLLVSLGVAIHLCCRRRRARLRFMKQFYK
percentage of EdU-negative (MCF7; [4]): 27.8 ± 0.56% | percentage of EdU-negative (MCF7; [5]): 28.7 ± 0.39% | percentage of EdU-negative (hTERT-HMEC; [4]): 5.15 ± 0.17% | percentage of EdU-negative (hTERT-HMEC; [5]): 4.67 ± 0.05%

MRPTLLWSLLLLLGVFAAAAAAPPDPLSQLPAPQHPKIRLYNAEQVLSWEPVALSNSTRPVVYQVQFKYTDSKWFTADIMSIGVNCTQITATECDFTAASPSAGFPMDFNVTLRLRAELGALHSAWVTMPWFQHYRNVTVGPPENIEVTPGEGSLIIRFSSPFDIADTSTAFFCYYVHYWEKGGIQQVKGPFRSNSISLDNLKPSRVYCLQVQAQLLWNKSNIFRVGHLSNISCYETMADASTELQQVILISVGTFSLLSVLAGACFFLVLKYRGLIKYWFHTPPSIPLQIEEYLKDPTQPILEALDKDSSPKDDVWDSVSIISFPEKEQEDVLQTL
percentage of EdU-negative (MCF7; [6]): 27.1 ± 3% | percentage of EdU-negative (MCF7; [7]): 24.6 ± 0.62% | percentage of EdU-negative (hTERT-HMEC; [6]): 5.59 ± 1.2% | percentage of EdU-negative (hTERT-HMEC; [7]): 6.09 ± 0.44%

MRPVSVWQWSPWGLLLCLLCSSCLGSPSPSTGPEKKAGSQGLRFRLAGFPRKPYEGRVEIQRAGEWGTICDDDFTLQAAHILCRELGFTEATGWTHSAKYGPGTGRIWLDNLSCSGTEQSVTECASRGWGNSDCTHDEDAGVICKDQRLPGFSDSNVIEVEHHLQVEEVRIRPAVGWGRRPLPVTEGLVEVRLPDGWSQVCDKGWSAHNSHVVCGMLGFPSEKRVNAAFYRLLAQRQQHSFGLHGVACVGTEAHLSLCSLEFYRANDTARCPGGGPAVVSCVPGPVYAASSGQKKQQQSKPQGEARVRLKGGAHPGEGRVEVLKASTWGTVCDRKWDLHAASVVCRELGFGSAREALSGARMGQGMGAIHLSEVRCSGQELSLWKCPHKNITAEDCSHSQDAGVRCNLPYTGAETRIRLSGGRSQHEGRVEVQIGGPGPLRWGLICGDDWGTLEAMVACRQLGLGYANHGLQETWYWDSGNITEVVMSGVRCTGTELSLDQCAHHGTHITCKRTGTRFTAGVICSETASDLLLHSALVQETAYIEDRPLHMLYCAAEENCLASSARSANWPYGHRRLLRFSSQIHNLGRADFRPKAGRHSWVWHECHGHYHSMDIFTHYDILTPNGTKVAEGHKASFCLEDTECQEDVSKRYECANFGEQGITVGCWDLYRHDIDCQWIDITDVKPGNYILQVVINPNFEVAESDFTNNAMKCNCKYDGHRIWVHNCHIGDAFSEEANRRFERYPGQTSNQII
percentage of EdU-negative (MCF7; [8]): 25.3 ± 1.3% | percentage of EdU-negative (MCF7; [9]): 31.5 ± 2.3% | percentage of EdU-negative (hTERT-HMEC; [8]): 4.9 ± 0.65% | percentage of EdU-negative (hTERT-HMEC; [9]): 39.2 ± 1.2%

MRQVCCSALPPPPLEKGRCSSYSDSSSSSSERSSSSSSSSSESGSSSRSSSNNSSISRPAAPPEPRPQQQPQPRSPAARRAAARSRAAAAGGMRRDPAPGFSMLLFGVSLACYSPSLKSVQDQAYKAPVVVEGKVQGLVPAGGSSSNSTREPPASGRVALVKVLDKWPLRSGGLQREQVISVGSCVPLERNQRYIFFLEPTEQPLVFKTAFAPLDTNGKNLKKEVGKILCTDCATRPKLKKMKSQTGQVGEKQSLKCEAAAGNPQPSYRWFKDGKELNRSRDIRIKYGNGRKNSRLQFNKVKVEDAGEYVCEAENILGKDTVRGRLYVNSVSTTLSSWSGHARKCNETAKSYCVNGGVCYYIEGINQLSCKCPNGFFGQRCLEKLPLRLYMPDPKQKAEELYQKRVLTITGICVALLVVGIVCVVAYCKTKKQRKQMHNHLRQNMCPAHQNRSLANGPSHPRLDPEEIQMADYISKNVPATDHVIRRETETTFSGSHSCSPSHHCSTATPTSSHRHESHTWSLERSESLTSDSQSGIMLSSVGTSKCNSPACVEARARRAAAYNLEERRRATAPPYHDSVDSLRDSPHSERYVSALTTPARLSPVDFHYSLATQVPTFEITSPNSAHAVSLPPAAPISYRLAEQQPLLRHPAPPGPGPGPGPGPGPGADMQRSYDSYYYPAAGPGPRRGTCALGGSLGSLPASPFRIPEDDEYETTQECAPPPPPRPRARGASRRTSAGPRRWRRSRLNGLAAQRARAARDSLSLSSGSGGGSASASDDDADDADGALAAESTPFLGLRGAHDALRSDSPPLCPAADSRTYYSLDSHSTRASSRHSRGPPPRAKQDSAPL
percentage of EdU-negative (MCF7; [10]): 24.9 ± 0.53% | percentage of EdU-negative (MCF7; [11]): 26.5 ± 0.38% | percentage of EdU-negative (hTERT-HMEC; [10]): 4.61 ± 0.33% | percentage of EdU-negative (hTERT-HMEC; [11]): 5.33 ± 1%
